{"source": "FireProtDB (doi:10.1111/j.1432-1033.1995.tb20304.x)", "proteins": {"B1": {"name": "Pro-hevein wild type, P02877 (protein)", "chain": "MNIFIVVLLCLTGVAIAEQCGRQAGGKLCPNNLCCSQWGWCGSTDEYCSPDHNCQSNCKDSGEGVGGGSASNVLATYHLYNSQDHGWDLNAASAYCSTWDANKPYSWRSKYGWTAFCGPVGAHGQSSCGKCLSVTNTGTGAKTTVRIVDQCSNGGLDLDVNVFRQLDTDGKGYERGHITVNYQFVDCGDSFNPLFSVMKSSVIN"}}, "conditions": "Hevea brasiliensis, Thermal, DSC, glycine 0.05 M, reversible: yes (~75%), whole UniProt chain shown", "data": [{"protein": "B1", "values": [{"measurement": "Tm", "setting": "pH 1.82", "value": 73, "unit": "°C"}, {"measurement": "heat capacity change of unfolding", "setting": "pH 1.82", "value": 0.37, "unit": "kcal/mol/K"}, {"measurement": "unfolding enthalpy (calorimetric)", "setting": "pH 1.82", "value": 29, "unit": "kcal/mol"}, {"measurement": "unfolding enthalpy (van 't Hoff)", "setting": "pH 1.82", "value": 43.4, "unit": "kcal/mol"}, {"measurement": "Tm", "setting": "pH 2.1", "value": 74.2, "unit": "°C"}, {"measurement": "heat capacity change of unfolding", "setting": "pH 2.1", "value": 0.44, "unit": "kcal/mol/K"}, {"measurement": "unfolding enthalpy (calorimetric)", "setting": "pH 2.1", "value": 28.6, "unit": "kcal/mol"}, {"measurement": "unfolding enthalpy (van 't Hoff)", "setting": "pH 2.1", "value": 41.6, "unit": "kcal/mol"}, {"measurement": "Tm", "setting": "pH 2.92", "value": 77.8, "unit": "°C"}, {"measurement": "heat capacity change of unfolding", "setting": "pH 2.92", "value": 0.5, "unit": "kcal/mol/K"}, {"measurement": "unfolding enthalpy (calorimetric)", "setting": "pH 2.92", "value": 31, "unit": "kcal/mol"}, {"measurement": "unfolding enthalpy (van 't Hoff)", "setting": "pH 2.92", "value": 41.5, "unit": "kcal/mol"}, {"measurement": "Tm", "setting": "pH 3.2", "value": 83.6, "unit": "°C"}, {"measurement": "heat capacity change of unfolding", "setting": "pH 3.2", "value": 0.62, "unit": "kcal/mol/K"}, {"measurement": "unfolding enthalpy (calorimetric)", "setting": "pH 3.2", "value": 34, "unit": "kcal/mol"}, {"measurement": "unfolding enthalpy (van 't Hoff)", "setting": "pH 3.2", "value": 41.8, "unit": "kcal/mol"}, {"measurement": "Tm", "setting": "pH 3.54", "value": 84.5, "unit": "°C"}, {"measurement": "heat capacity change of unfolding", "setting": "pH 3.54", "value": 0.44, "unit": "kcal/mol/K"}, {"measurement": "unfolding enthalpy (calorimetric)", "setting": "pH 3.54", "value": 36.5, "unit": "kcal/mol"}, {"measurement": "unfolding enthalpy (van 't Hoff)", "setting": "pH 3.54", "value": 41.6, "unit": "kcal/mol"}, {"measurement": "Tm", "setting": "pH 3.67", "value": 90.1, "unit": "°C"}, {"measurement": "heat capacity change of unfolding", "setting": "pH 3.67", "value": 0.45, "unit": "kcal/mol/K"}, {"measurement": "unfolding enthalpy (calorimetric)", "setting": "pH 3.67", "value": 38, "unit": "kcal/mol"}, {"measurement": "unfolding enthalpy (van 't Hoff)", "setting": "pH 3.67", "value": 42.5, "unit": "kcal/mol"}]}]}
